# Earlier results, collected in article PMC7261628.
# Biological target: Cathepsin B propeptide (prosegment) (UniProt P07858)
# Experiment: Enzyme inhibition kinetics
Ki (pH 4.0) [nM],Ki (pH 6.0) [nM],Substance
2,–,Cathepsin B His110Ala mutant H110A
82,3.7,"Cathepsin B, mature enzyme (wild type)"
